Reference: the supplement of paper PMC9112550, “Optimization of the antimicrobial peptide Bac7 by deep mutational scanning” (BMC Biology, 2022)

Tested on: Escherichia coli TOP10
Experiment: shrunken log2 fold change of peptide-encoding DNA abundance (4.5 h post-induction vs induction); higher = less antimicrobial activity (less host growth inhibition)
Settings: time post-induction: 4.5 h; library: site-saturation at positions 5, 18, 19, 20
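Note: peptides expressed intracellularly from a pBAD plasmid library in pooled LB shake-flask culture, induced with 0.3% L-arabinose, DNA abundance read by NGS, three biological replicates, DESeq2 with apeglm shrinkage.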

| Sequence | shrunken log2 fold change |
| --- | --- |
| RRIRWRPPRLPRPRPRPEIKPRP | -0.0674 |
| RRIRKRPPRLPRPRPRPLDKPRP | -0.0705 |
| RRIRIRPPRLPRPRPRPNSPPRP | 0.00971 |
| RRIRHRPPRLPRPRPRPAWWPRP | 0.157 |
| RRIRSRPPRLPRPRPRPYGEPRP | -0.256 |
| RRIRNRPPRLPRPRPRPLNPPRP | -0.133 |
| RRIRARPPRLPRPRPRPDAWPRP | 1.05 |
| RRIRARPPRLPRPRPRPVIVPRP | 0.142 |
| RRIRVRPPRLPRPRPRPQNAPRP | 0.00238 |
| RRIRQRPPRLPRPRPRPPETPRP | 0.00852 |
| RRIRHRPPRLPRPRPRPTIYPRP | -0.254 |
| RRIRHRPPRLPRPRPRPYLGPRP | -0.403 |
| RRIRFRPPRLPRPRPRPAWSPRP | 0.116 |
| RRIRARPPRLPRPRPRPMWIPRP | 0.249 |
| RRIRDRPPRLPRPRPRPGMSPRP | 0.0134 |
| RRIRKRPPRLPRPRPRPTTQPRP | 0.196 |
| RRIRHRPPRLPRPRPRPTEPPRP | 0.0484 |
| RRIRIRPPRLPRPRPRPDFHPRP | -0.649 |
| RRIRIRPPRLPRPRPRPRTHPRP | -0.372 |
| RRIRFRPPRLPRPRPRPGEQPRP | -0.0185 |
| RRIRERPPRLPRPRPRPIMMPRP | -0.689 |
| RRIRMRPPRLPRPRPRPITIPRP | -0.315 |
| RRIRVRPPRLPRPRPRPRIKPRP | -0.125 |
| RRIRDRPPRLPRPRPRPHKDPRP | -0.239 |
| RRIRSRPPRLPRPRPRPVRQPRP | 0.19 |

| Sequence | shrunken log2 fold change |
| --- | --- |
| RRIRWRPPRLPRPRPRPNWGPRP | 0.105 |
| RRIRYRPPRLPRPRPRPGLYPRP | -0.486 |
| RRIRVRPPRLPRPRPRPPGQPRP | 0.266 |
| RRIRHRPPRLPRPRPRPGPHPRP | -0.14 |
| RRIRGRPPRLPRPRPRPGVTPRP | 0.721 |
| RRIRIRPPRLPRPRPRPVYEPRP | -0.12 |
| RRIRMRPPRLPRPRPRPNWRPRP | 0.0183 |
| RRIRSRPPRLPRPRPRPRNLPRP | -0.322 |
| RRIRRRPPRLPRPRPRPICVPRP | 0.0261 |
| RRIRPRPPRLPRPRPRPMLWPRP | 0.172 |
| RRIRQRPPRLPRPRPRPHHTPRP | -0.0489 |
| RRIRGRPPRLPRPRPRPEGFPRP | 1.56 |
| RRIRDRPPRLPRPRPRPTQLPRP | -0.0815 |
| RRIRIRPPRLPRPRPRPYWQPRP | -0.774 |
| RRIRFRPPRLPRPRPRPEEQPRP | 0.162 |
| RRIRDRPPRLPRPRPRPPEFPRP | -0.0567 |
| RRIRCRPPRLPRPRPRPDVMPRP | -0.101 |
| RRIRNRPPRLPRPRPRPRKLPRP | -0.0702 |
| RRIRERPPRLPRPRPRPKVKPRP | 0.0263 |
| RRIRQRPPRLPRPRPRPCSDPRP | -0.136 |
| RRIRDRPPRLPRPRPRPMYKPRP | -0.363 |
| RRIRPRPPRLPRPRPRPQAVPRP | 0.0933 |
| RRIRNRPPRLPRPRPRPAFKPRP | -0.0432 |
| RRIRNRPPRLPRPRPRPGFHPRP | -0.0379 |
| RRIRLRPPRLPRPRPRPTDPPRP | 0.187 |

| Sequence | shrunken log2 fold change |
| --- | --- |
| RRIRDRPPRLPRPRPRPGCFPRP | 0.565 |
| RRIRQRPPRLPRPRPRPIRDPRP | -0.161 |
| RRIRMRPPRLPRPRPRPLPWPRP | 1.74 |
| RRIRNRPPRLPRPRPRPLHAPRP | -0.0128 |
| RRIRARPPRLPRPRPRPNFQPRP | -0.0343 |
| RRIRHRPPRLPRPRPRPSLCPRP | -0.0468 |
| RRIRGRPPRLPRPRPRPSWQPRP | 0.109 |
| RRIRNRPPRLPRPRPRPDMPPRP | -0.244 |
| RRIRNRPPRLPRPRPRPCSPPRP | -0.354 |
| RRIRQRPPRLPRPRPRPQYAPRP | -0.176 |
| RRIRARPPRLPRPRPRPPVPPRP | 0.638 |
| RRIRCRPPRLPRPRPRPKDQPRP | -0.0507 |
| RRIRCRPPRLPRPRPRPPRGPRP | 0.67 |
| RRIRIRPPRLPRPRPRPQIWPRP | -0.174 |
| RRIRVRPPRLPRPRPRPIARPRP | 0.0436 |
| RRIRLRPPRLPRPRPRPRSIPRP | -0.247 |
| RRIRPRPPRLPRPRPRPNREPRP | 0.026 |
| RRIRSRPPRLPRPRPRPVKQPRP | 0.0733 |
| RRIRCRPPRLPRPRPRPCRMPRP | -0.317 |
| RRIRCRPPRLPRPRPRPQLCPRP | 0.192 |
| RRIRHRPPRLPRPRPRPTRKPRP | 0.00421 |
| RRIRYRPPRLPRPRPRPSHQPRP | -0.594 |
| RRIRWRPPRLPRPRPRPEIIPRP | 0.231 |
| RRIRQRPPRLPRPRPRPCFVPRP | -0.0859 |
| RRIRHRPPRLPRPRPRPIDQPRP | 0.0834 |

| Sequence | shrunken log2 fold change |
| --- | --- |
| RRIRIRPPRLPRPRPRPMDLPRP | -1.16 |
| RRIRKRPPRLPRPRPRPLNIPRP | -0.0957 |
| RRIRDRPPRLPRPRPRPDTEPRP | 0.0738 |
| RRIRYRPPRLPRPRPRPEYIPRP | -0.348 |
| RRIRHRPPRLPRPRPRPTVAPRP | 0.325 |
| RRIRKRPPRLPRPRPRPSMAPRP | 0.0554 |
| RRIRKRPPRLPRPRPRPRCLPRP | 0.226 |
| RRIRERPPRLPRPRPRPPDNPRP | 0.197 |
| RRIRSRPPRLPRPRPRPWTMPRP | 0.0795 |
| RRIRQRPPRLPRPRPRPKGLPRP | 0.0353 |
| RRIRARPPRLPRPRPRPWSFPRP | -0.00357 |
| RRIRWRPPRLPRPRPRPIHWPRP | 0.202 |
| RRIRTRPPRLPRPRPRPWGRPRP | 0.00879 |
| RRIRNRPPRLPRPRPRPRCLPRP | -0.157 |
| RRIRMRPPRLPRPRPRPGFCPRP | 0.442 |
| RRIRERPPRLPRPRPRPAHAPRP | 0.117 |
| RRIRMRPPRLPRPRPRPGVPPRP | 0.671 |
| RRIRGRPPRLPRPRPRPTKDPRP | 0.7 |
| RRIRSRPPRLPRPRPRPQNGPRP | -0.535 |
| RRIRVRPPRLPRPRPRPYRPPRP | -0.462 |
| RRIRHRPPRLPRPRPRPDLYPRP | -0.243 |
| RRIRDRPPRLPRPRPRPYHAPRP | -0.0316 |
| RRIRSRPPRLPRPRPRPTVAPRP | 0.243 |
| RRIRVRPPRLPRPRPRPQIQPRP | -0.034 |
| RRIRWRPPRLPRPRPRPYNPPRP | -1.48 |

| Sequence | shrunken log2 fold change |
| --- | --- |
| RRIRNRPPRLPRPRPRPEDAPRP | -0.00133 |
| RRIRIRPPRLPRPRPRPFGPPRP | -0.189 |
| RRIRMRPPRLPRPRPRPTGLPRP | 0.961 |
| RRIRIRPPRLPRPRPRPTIHPRP | -0.592 |
| RRIRLRPPRLPRPRPRPCALPRP | -0.0607 |
| RRIRPRPPRLPRPRPRPDAHPRP | 0.209 |
| RRIRARPPRLPRPRPRPLDRPRP | -0.233 |
| RRIRPRPPRLPRPRPRPNVHPRP | -0.44 |
| RRIRMRPPRLPRPRPRPGACPRP | 0.73 |
| RRIRMRPPRLPRPRPRPGCKPRP | 0.172 |
| RRIRERPPRLPRPRPRPRAWPRP | 0.195 |
| RRIRERPPRLPRPRPRPMNLPRP | -0.0666 |
| RRIRYRPPRLPRPRPRPYLHPRP | -0.0309 |
| RRIRTRPPRLPRPRPRPNKAPRP | -0.0944 |
| RRIRARPPRLPRPRPRPFWKPRP | -0.13 |
| RRIRFRPPRLPRPRPRPYFMPRP | -1.02 |
| RRIRRRPPRLPRPRPRPRMSPRP | 0.938 |
| RRIRWRPPRLPRPRPRPLYAPRP | 0.188 |
| RRIRERPPRLPRPRPRPEMGPRP | -0.116 |
| RRIRMRPPRLPRPRPRPHVMPRP | -0.192 |
| RRIRSRPPRLPRPRPRPYWFPRP | -0.624 |
| RRIRTRPPRLPRPRPRPLPRPRP | 0.484 |
| RRIRFRPPRLPRPRPRPWLQPRP | -0.163 |
| RRIRARPPRLPRPRPRPIPKPRP | 0.394 |
| RRIRMRPPRLPRPRPRPMIQPRP | 0.00725 |

| Sequence | shrunken log2 fold change |
| --- | --- |
| RRIRKRPPRLPRPRPRPSSWPRP | 0.147 |
| RRIRMRPPRLPRPRPRPSHKPRP | -0.183 |
| RRIRNRPPRLPRPRPRPMNHPRP | 0.0515 |
| RRIRERPPRLPRPRPRPMCSPRP | -0.00794 |
| RRIRYRPPRLPRPRPRPWWTPRP | -0.333 |
| RRIRRRPPRLPRPRPRPNTWPRP | 0.0852 |
| RRIRYRPPRLPRPRPRPPHLPRP | -0.52 |
| RRIRARPPRLPRPRPRPKFCPRP | 0.22 |
| RRIRNRPPRLPRPRPRPNLQPRP | -0.446 |
| RRIRGRPPRLPRPRPRPMLGPRP | 1.19 |
| RRIRVRPPRLPRPRPRPMPNPRP | -0.116 |
| RRIRIRPPRLPRPRPRPRFHPRP | -0.42 |
| RRIRYRPPRLPRPRPRPKSYPRP | -0.101 |
| RRIRPRPPRLPRPRPRPPIMPRP | -0.0982 |
| RRIRSRPPRLPRPRPRPGTAPRP | 0.33 |
| RRIRDRPPRLPRPRPRPFWLPRP | 0.00235 |
| RRIRIRPPRLPRPRPRPQMRPRP | 0.0729 |
| RRIRLRPPRLPRPRPRPIRRPRP | 0.0431 |
| RRIRVRPPRLPRPRPRPPDRPRP | 0.379 |
| RRIRMRPPRLPRPRPRPCMHPRP | 0.14 |
| RRIRRRPPRLPRPRPRPDEHPRP | -0.0368 |
| RRIRTRPPRLPRPRPRPTWLPRP | 0.511 |
| RRIRKRPPRLPRPRPRPFYSPRP | 0.00762 |
| RRIRQRPPRLPRPRPRPMPNPRP | -0.215 |
| RRIRNRPPRLPRPRPRPKGLPRP | -0.00227 |
